Results published in the supplement of paper PMC12764529.
± gives the half width of the 95% confidence interval.

How the values were obtained:
[1] = folding stability dG unfold from trypsin proteolysis; higher = more stable
Protocol: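 Folding stability of de novo designed mini-proteins (<80 aa, no Cys; designed by TrROS, TrMRF, ProteinMPNN and the joint model) was measured by cDNA display proteolysis with trypsin and chymotrypsin. Each protease was used at 11 concentrations in a threefold dilution series plus a no-protease condition. K50 was inferred by Bayesian fitting of sequencing counts, and dG unfold was derived against a sequence-predicted unfolded-state K50 (Tsuboyama et al. method). Sequences shown include variable-length N-terminal GS-type padding (SAGGSAGG...) inside a display construct carrying a PA tag. Rows were kept only if the AF2 dimer inter-PAE was >15, to exclude likely homo-oligomers.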

[2] = folding stability dG unfold from chymotrypsin proteolysis; higher = more stable
Summary of the method: (§1)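 How resistant each design was to proteolysis was captured as K50, inferred by Bayesian fitting of sequencing counts. Unfolding free energy was then derived relative to a sequence-predicted unfolded-state K50 and a shared folded-state K50, per protease or combined. Digestion used trypsin and chymotrypsin at 11 threefold-diluted concentrations plus a no-protease condition, on mini-proteins under 80 residues without cysteine in a PA-tagged cDNA display construct. Designs were kept only when AlphaFold2 dimer inter-PAE was above 15.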

[3] = folding stability dG unfold (combined trypsin and chymotrypsin); higher = more stable
Summary of the method: as §1

| Sequence | folding stability dG unfold [1] [kcal/mol] | folding stability dG unfold [2] [kcal/mol] | folding stability dG unfold [3] [kcal/mol] |
| --- | --- | --- | --- |
| KRVTIMFNFPPGKPLPLSELAGFARNSGGEVKIQIYNPDDGKWQEITFPGGKIDDVEMFPDGWMVMITVKGS [r1_238_TrROS] | 2.09 ± 0.061 | 2.83 ± 0.089 | 2.52 ± 0.15 |
| KTITIIIPMTPEQIEELAKALAEKLGLSEEEVEVVKVEKIKNEDGELYVKITIKLKETGKEITIIVPLKDLS [r1_21_TrROS_Hall] | 1.76 ± 0.08 | 3.2 ± 0.12 | 2.8 ± 0.12 |
| KTITIVIKNEDGELYVIKIKLKNGEEKEIVFKSLEELKNAIAKELGLSKEKIEIVEIKPLSPEELKELEKKS [r1_119_TrROS_Hall] | 1.99 ± 0.13 | 3.96 ± 0.14 | 3.33 ± 0.35 |
| KTITIVVKVPSLEEVEALAAELAKELNLPPGAKVEVKVEYDEETGYVVVTVTVTNPNGEKIEIKIVVELPDS [r1_84_TrROS_Hall] | 1.86 ± 0.1 | 3.72 ± 0.38 | 3.08 ± 0.22 |
| KTKTIVINAKDLTEEQLRELLKKLGVSEEDVEVSEDGKTVVIKIDGVTIVIVASPPKPVVKPDDPEAKKAAS [r1_57_TrROS_Hall] | 1.27 ± 0.051 | 1.75 ± 0.085 | 1.61 ± 0.12 |
| KTRHIPIRDALDEAEELIDEGPRMVKITIYNNNGQKHEIETLKDILDKLKSNFPGMPPDNMKVQVEVIPPPS [r1_325_TrROS] | -0.297 ± 0.68 | -0.0938 ± 0.22 | -0.211 ± 0.3 |
| KVEIKVEIEVKYNKETGKKVVKIRITVKEGSKEEAEKLAAELAKELFGPNVKVTVEYDKETDEITVTLVFPS [r1_273_TrROS_Hall] | 3.57 ± 0.15 | 4.06 ± 0.18 | 3.96 ± 0.2 |
| LDPNKPENIALLEKVEEAAKAVIEELEKAGYKVEKLYVALGPNGIKIAPVTIPPEFIEELKKAGILVIPVLS [r1_134_TrMRF] | 1.49 ± 0.11 | 1.64 ± 0.14 | 1.56 ± 0.26 |
| MDDVVRVVLPVRVRIRDPVAPDRPEREVEILLERDVPLDEESLEELLEEAERAAEELARALGGEEAEVEPVS [r1_300_TrMRF] | 0.135 ± 0.09 | 1.54 ± 0.024 | 1.15 ± 0.089 |
| MEITITETENGYRVEVKIEITVIDPKTGEPVPLEIPVEAFVPASDPDPEKAAKEAAEKALEEVLKALPEGLS [r1_414_JUSTAS] | 2.33 ± 0.21 | 1.88 ± 0.091 | 1.99 ± 0.19 |
| MEVKIKVEIVKVEEVEVKKKKDGKEEKFIRIEIKIEVEAKPGLSEEEIKKLAEELAKKLKELGLEVEVKKES [r1_305_TrROS_Hall] | 0.993 ± 0.091 | 2.15 ± 0.13 | 1.96 ± 0.22 |
| MFKPGTKVTFGDKTVEVPEGDELYIFEGKVFGTSEVEAVLENMSDDAVGYKLVVEDETGKIVKVEEFVFKPS [r1_304_TrMRF] | -0.451 ± 0.25 | -0.172 ± 0.51 | -0.406 ± 0.43 |
| MIPLTLEYDPEKKVIRLKTPDGKPVIVEAGDKGYRVIIYDPKTGKPTVIPVTEKELLDLAKNPAFNLDLAAS [r1_18_TrMRF] | 1.94 ± 0.025 | 1.23 ± 0.076 | 1.65 ± 0.059 |
| MKAHVTVVDLEDRYRARIELELPDGRVLVFEFEFDSWEEAIEFIRGLIAALPEDEVEIDHIEFLPPDGDPSS [r1_169_TrMRF] | 3.92 ± 0.091 | 4.73 ± 0.051 | 4.46 ± 0.1 |
| MKIRVEITVRNPDGEELKIEIVLSLEELEELRKEGKPLTLEELKALIEERARKLAEELDLEVEIKIVEIEPS [r1_174_TrROS_Hall] | 4.11 ± 0.35 | 5.06 ± 0.89 | > 6 |
| MKKVKVTITITVPEEDKEKVKELIEKLKEAVPNVKVTSVEFDEKTGKITIVVEMTEEELEELKKALKEALES [r1_443_TrROS_Hall] | 2.78 ± 0.11 | 1.47 ± 0.036 | 2.06 ± 0.082 |
| MKPLTPDEVKELAKFIANMIRRRMRENGIKDVEIPVKVEPDPNGWYWINVSITFKYNGKPIGRFPIEIWVRS [r1_364_TrROS] | 3.17 ± 0.045 | 3.781 ± 0.019 | 3.57 ± 0.074 |
| MKPLTPEEVKKIAEGIAKEIEKAAKALGIDKVEVPVKIEKLPDGGYKIIIEVKLYKDDKKIGTFPIEIYIDS [r1_364_TrMRF] | 3.51 ± 0.34 | 3.1 ± 0.14 | 2.9 ± 0.39 |
| MKTIEIEIKLSPEIKEALKEGKPLSLEELVNKIKEEIAKKLGLKEVKVKKIEIKKDENGEIIIKVTIEVKPS [r1_290_TrROS_Hall] | 3.9 ± 0.38 | 2.77 ± 0.091 | 3.31 ± 0.27 |
| MKTITITVTDAPPGTVTIRVEIEREDGSTIEIEKEITVKPGDTITITLKEDEPYKIKKIEIYHNGKKIEITS [r1_70_TrROS_Hall] | 2.58 ± 0.15 | 3.81 ± 0.1 | 3.76 ± 0.33 |
